Test results reported in article PMC11579514, “Validation of NBD-coupled taurocholic acid for intravital analysis of bile acid transport in liver and kidney of mice” (EXCLI Journal, 2024).

Experiments:
[1] = substrate: C[C@H](CCC(=O)NCCS(=O)(=O)O)[C@H]1CC[C@H]2[C@@H]3[C@H](O)C[C@@H]4C[C@@H](Nc5ccc([N+](=O)[O-])c6nonc56)CC[C@]4(C)[C@H]3C[C@H](O)[C@]12C; experiment: sodium-dependent fluorescent uptake kinetics (Km) in mAsbt-HEK cells; format: cell-based, Mus musculus; details: Na+
[2] = substrate: C[C@H](CCC(=O)NCCS(=O)(=O)O)[C@H]1CC[C@H]2[C@@H]3[C@H](O)C[C@@H]4C[C@@H](Nc5ccc([N+](=O)[O-])c6nonc56)CC[C@]4(C)[C@H]3C[C@H](O)[C@]12C; experiment: sodium-dependent fluorescent uptake kinetics (Km) in mNtcp-HEK cells; format: cell-based, Mus musculus; details: Na+

B1: mAsbt (mouse apical sodium-dependent bile acid transporter) (Mus musculus) (protein)
chain: MDNSSVCPPNATVCEGDSCVVPESNFNAILNTVMSTVLTILLAMVMFSMGCNVEVHKFLGHIKRPWGIFVGFLCQFGIMPLTGFILSVASGILPVQAVVVLIMGCCPGGTGSNILAYWIDGDMDLSVSMTTCSTLLALGMMPLCLFVYTKMWVDSGTIVIPYDSIGISLVALVIPVSFGMFVNHKWPQKAKIILKIGSITGVILIVLIAVIGGILYQSAWIIEPKLWIIGTIFPIAGYSLGFFLARLAGQPWYRCRTVALETGMQNTQLCSTIVQLSFSPEDLNLVFTFPLIYTVFQLVFAAVILGIYVTYRKCYGKNDAEFLEKTDNEMDSRPSFDETNKGFQPDEK
notes: full open reading frame with C-terminal FLAG, stably expressed in HEK293
Protein B1 has a Km [1] of 19.1 µM.

B2: mNtcp (mouse Na+/taurocholate co-transporting polypeptide) (Mus musculus) (protein)
chain: MEAHNVSAPFNFSLPPGFGHRATDTALSVILVVMLLLIMLSLGCTMEFSKIKAHFWKPKGVIIAIVAQYGIMPLSAFLLGKVFHLTSIEALAILICGCSPGGNLSNLFTLAMKGDMNLSIVMTTCSSFTALGMMPLLLYIYSKGIYDGDLKDKVPYKGIMLSLVMVLIPCAIGIFLKSKRPHYVPYVLKAGMIITFSLSVAVTVLSVINVGNSIMFVMTPHLLATSSLMPFTGFLMGYILSALFRLNPSCRRTISMETGFQNVQLCSTILNVTFPPEVIGPLFFFPLLYMIFQLAEGLLFIIIFRCYLKIKPQKDQTKITYKAAATEDATPAALEKGTHNGNNPPTQPGLSPNGLNSGQMAN
notes: as for B1
For B2, the Km [2] was 23.3 µM.
